Source: patent publication US20260102475A1

How the values were obtained:
[1] = molecular target: IgG in human serum (serum pool n=100; pre-dose patient serum)
[2] = molecular target: polyclonal IgG (substrate spiked into post-dose sera)

| Protein | cleavage of IgG in pre-dose patient serum, SDS-PAGE and SAB-HLA [1] | degradation of substrate spiked into sera collected after imlifidase dosing [2] | cleavage of IgG in serum, SDS-PAGE [1] |
| --- | --- | --- | --- |
| N240 (IdeS/IdeZ hybrid IgG cysteine protease) (protein) DDYQRNATEAYAKEVPHQITSVWTKGVTPPEQFTQGEDVIHAPYLAHQGWYDITKAFNGKDDLLCGAATAGNMLHWWFDQNKTEIEAYLSKHPEKQKIIFRNQELFDLKAAIDTKDSQTNSQLFNYFRDKAFPNLSARQLGVMPDLVLDMFINGYYLNVFKTQSTDVNRPYQDKDKRGGIFDAVFTRGNQTTLLTARHDLKNKGLNDISTIIKQELTEGRALALSHTYANVSISHVINLWGADFNAEGNLEAIYVTDSDANASIGMKKYFVGINAHGHVAISAKKIEGENIGAQVLGLFTLSSGKDIWQKLS | N240 showed similar cleavage properties to imlifidase | – | – |
| imlifidase (IdeS, Immunoglobulin G-degrading enzyme of S. pyogenes) (protein) DSFSANQEIRYSEVTPYHVTSVWTKGVTPPANFTQGEDVFHAPYVANQGWYDITKTFNGKDDLLCGAATAGNMLHWWFDQNKDQIKRYLEEHPEKQKINFNGEQMFDVKEAIDTKNHQLDSKLFEYFKEKAFPYLSTKHLGVFPDHVIDMFINGYRLSLTNHGPTPVKEGSKDPRGGIFDAVFTRGDQSKLLTSRHDFKEKNLKEISDLIKKELTEGKALGLSHTYANVRINHVINLWGADFDSNGNLKAIYVTDSDSNASIGMKKYFVGVNSAGKVAISAKEIKEDNIGAQVLGLFTLSTGQDSWNQTN | – | When polyclonal IgG was used as substrate, no degradation was seen in samples collected from 48 hours after dosing and forward | a concentration of around 2 µg/mL imlifidase was needed to start the cleavage in serum and concentrations below this did not result in any cleavage despite prolonged incubation |
